Reference: patent US20020197616A1 (REGENTS OF THE UNIVERSITY OF MICHIGAN, published 2002)
Values belong to the binder of their own block, whether it stands above or below them.

Key:
[1] = biological target: the molecule itself; assay: method not described ('our observations'); self-association
[2] = biological target: T1, Nod2 (wild-type, HA-tagged) (human, UniProt Q9HC29 1-1040); assay: co-immunoprecipitation, HEK293T extracts
T1 construct: Expressed in HEK293T cells and tested in cell extracts by co-immunoprecipitation; also called Nod2a; wt Nod2; not shown: HA tag; the plasmid is named both pcDNA3-Nod2-HA and pcDNA3-HA-Nod2, so the end that carries the ta
Text: Proteins co-immunoprecipitated with anti-HA antibody were detected with anti-Flag antibody. […] Proteins in total lysate were detected by anti-Flag and anti-HA monoclonal antibody, respectively. […]

B1: Nod2 lacking the LRRs (1-744) (other)
chain: MGEEGGSASHDEEERASVLLGHSPGCEMCSQEAFQAQRSQLVELLVSGSLEGFESVLDWLLSWEVLSWEDYEGFHLLGQPLSHLARRLLDTVWNKGTWACQKLIAAAQEAQADSQSPKLHGCWDPHSLHPARDLQSHRPAIVRRLHSHVENMLDLAWERGFVSQYECDEIRLPIFTPSQRARRLLDLATVKANGLAAFLLQHVQELPVPLALPLEAATCKKYMAKLRTTVSAQSRFLSTYDGAETLCLEDIYTENVLEVWADVGMAGPPQKSPATLGLEELFSTPGHLNDDADTVLVVGEAGSGKSTLLQRLHLLWAAGQDFQEFLFVFPFSCRQLQCMAKPLSVRTLLFEHCCWPDVGQEDIFQLLLDHPDRVLLTFDGFDEFKFRFTDRERHCSPTDPTSVQTLLFNLLQGNLLKNARKVVTSRPAAVSAFLRKYIRTEFNLKGFSEQGIELYLRKRHHEPGVADRLIRLLQETSALHGLCHLPVFSWMVSKCHQELLLQEGGSPKTTTDMYLLILQHFLLHATPPDSASQGLGPSLLRGRLPTLLHLGRLALWGLGMCCYVFSAQQLQAAQVSPDDISLGFLVRAKGVVPGSTAPLEFLHITFQCFFAAFYLALSADVPPALLRHLFNCGRPGNSPMARLLPTMCIQASEGKDSSVAALLQKAEPHNLQITAAFLAGLLSREHWGLLAECQTSEKALLRRQACARWCLARSLRKHFHSIPPAAPGEAKSVHAMPGFIWLIR
notes: also called Nod2ΔLRR; Nod2 (1-744)
binding result [1]: binds

binding result [2]: no binding
B2: Bcl-10 (other, UniProt O95999 1-233, looked up)
chain: MEPTAPSLTEEDLTEVKKDALENLRVYLCEKIIAERHFDHLRAKKILSREDTEEISCRTSSRKRAGKLLDYLQENPKGLDTLVESIRREKTQNFLIQKITDEVLKLRNIKLEHLKGLKCSSCEPFPDGATNNLSRSNSDESNFSEKLRASTVMYHPEGESSTTPFFSTNSSLNLPVLEVGRTENTIFSSTTLPRPGDPGAPPLPPDLQLEEEGTCANSSEMFLPLRSRTVSRQ
notes: Construct and tag not described
